Assay results taken from patent publication US20160264663A1 (published 2016).

Legend:
human podocalyxin [1] = molecular target: T1, human podocalyxin (human); experiment: FACS, isotype control, hPodo/MDA cells
T1 chain: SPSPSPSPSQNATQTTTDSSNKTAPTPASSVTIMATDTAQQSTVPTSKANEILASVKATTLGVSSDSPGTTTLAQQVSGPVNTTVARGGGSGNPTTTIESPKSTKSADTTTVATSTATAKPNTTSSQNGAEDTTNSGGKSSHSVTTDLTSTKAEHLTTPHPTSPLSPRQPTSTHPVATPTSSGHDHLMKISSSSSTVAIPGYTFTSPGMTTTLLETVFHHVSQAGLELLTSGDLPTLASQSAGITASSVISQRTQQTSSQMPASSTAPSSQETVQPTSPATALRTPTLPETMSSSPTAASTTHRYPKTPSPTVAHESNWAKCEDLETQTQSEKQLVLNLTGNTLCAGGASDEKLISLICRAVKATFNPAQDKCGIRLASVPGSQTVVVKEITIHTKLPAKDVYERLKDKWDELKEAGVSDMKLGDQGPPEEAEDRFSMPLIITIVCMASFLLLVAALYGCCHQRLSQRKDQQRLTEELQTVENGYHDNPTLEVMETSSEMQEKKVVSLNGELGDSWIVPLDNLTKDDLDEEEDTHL

human podocalyxin [2] = molecular target: T1, human podocalyxin; experiment: flow cytometry, isotype control, T47-D cells
human podocalyxin [3] = molecular target: T1, human podocalyxin; experiment: flow cytometry, isotype control, MDA-MB-231 cells
human podocalyxin [4] = molecular target: T1, human podocalyxin; experiment: flow cytometry, isotype control, MCF7 cells
human podocalyxin [5] = molecular target: T1, human podocalyxin; experiment: flow cytometry, isotype control, OVCAR10 cells
human podocalyxin [6] = molecular target: T1, human podocalyxin; experiment: flow cytometry, isotype control, HUVEC cells
human podocalyxin [7] = molecular target: T1, human podocalyxin; experiment: flow cytometry, isotype control, A172 cells
human podocalyxin [8] = molecular target: T1, human podocalyxin; experiment: flow cytometry, isotype control, CaOV3 cells
human podocalyxin [9] = molecular target: T1, human podocalyxin; experiment: flow cytometry, isotype control, 293 HEK cells
human podocalyxin [10] = molecular target: T1, human podocalyxin; experiment: flow cytometry, isotype control, SKOV3 cells
human podocalyxin [11] = molecular target: T1, human podocalyxin; experiment: flow cytometry, isotype control, OVCAR3 cells
human podocalyxin [12] = molecular target: T1, human podocalyxin; experiment: cross competition FACS on MDA-MB-231 cells; unlabeled antibody 25 ug/mL; competitor and detected antibody: B-3G2.2 5 ug/mL
human podocalyxin [13] = molecular target: T1, human podocalyxin; experiment: cross competition FACS on MDA-MB-231 cells; unlabeled antibody 25 ug/mL; competitor and detected antibody: biotinylated Rb/Hu Podo83 5 ug/mL
human podocalyxin [14] = molecular target: T1, human podocalyxin; experiment: cross competition FACS on MDA-MB-231 cells; unlabeled antibody 25 ug/mL; detected antibody: B-Herceptin 5 ug/mL (control, its target on the cells not given)
human podocalyxin [15] = molecular target: T1, human podocalyxin; experiment: cross competition FACS on MDA-MB-231 cells; unlabeled antibody 25 ug/mL; detected antibody: B-Ova 12 5 ug/mL (control)
human podocalyxin [16] = molecular target: T1, human podocalyxin; experiment: cross competition FACS on MDA-MB-231 cells; unlabeled antibody 25 ug/mL; detected antibody: B-mIgG1 5 ug/mL (control)
human podocalyxin [17] = molecular target: T1, human podocalyxin; experiment: flow cytometry, control antibody, CaOV3 cells
human podocalyxin [18] = molecular target: T1, human podocalyxin; experiment: flow cytometry, control antibody, MDA-MB-231 cells
human podocalyxin [19] = molecular target: T1, human podocalyxin; experiment: flow cytometry, control antibody, HUVEC cells
human podocalyxin [20] = molecular target: T1, human podocalyxin; experiment: flow cytometry, control antibody, T47-D cells
human podocalyxin [21] = molecular target: T1, human podocalyxin; experiment: flow cytometry, control antibody, A172 cells
human podocalyxin [22] = molecular target: T1, human podocalyxin; experiment: flow cytometry, control antibody, OVCAR3 cells
human podocalyxin [23] = molecular target: T1, human podocalyxin; experiment: flow cytometry, control antibody, MCF7 cells
human podocalyxin [24] = molecular target: T1, human podocalyxin; experiment: flow cytometry, control antibody, 293 HEK cells
human podocalyxin [25] = molecular target: T1, human podocalyxin; experiment: flow cytometry, control antibody, OVCAR10 cells

hIgG1 (antibody)
FACS signal (name not given) (human podocalyxin [1]): 544

MsIgG2a (antibody)
Live cell GeoMean FL (geometric mean fluorescence units) (human podocalyxin [2]): 787
Live cell GeoMean FL (geometric mean fluorescence units) (human podocalyxin [3]): 478
Live cell GeoMean FL (geometric mean fluorescence units) (human podocalyxin [4]): 1130
Live cell GeoMean FL (geometric mean fluorescence units) (human podocalyxin [5]): 618
Live cell GeoMean FL (geometric mean fluorescence units) (human podocalyxin [6]): 484
Live cell GeoMean FL (geometric mean fluorescence units) (human podocalyxin [7]): 797
Live cell GeoMean FL (geometric mean fluorescence units) (human podocalyxin [8]): 892
Live cell GeoMean FL (geometric mean fluorescence units) (human podocalyxin [9]): 556
Live cell GeoMean FL (geometric mean fluorescence units) (human podocalyxin [10]): 485
Live cell GeoMean FL (geometric mean fluorescence units) (human podocalyxin [11]): 708

3D3 (Santa Cruz Biotechnology sc23904) (antibody)
FACS signal (name not given) (human podocalyxin [12]): 26400
FACS signal (name not given) (human podocalyxin [13]): 135000
FACS signal (name not given) (human podocalyxin [14]): 4820
FACS signal (name not given) (human podocalyxin [15]): 450
FACS signal (name not given) (human podocalyxin [16]): 419

MAB1658 (R&D Systems) (antibody)
FACS signal (name not given) (human podocalyxin [12]): 26900
FACS signal (name not given) (human podocalyxin [13]): 127000
FACS signal (name not given) (human podocalyxin [14]): 4720
FACS signal (name not given) (human podocalyxin [15]): 476
FACS signal (name not given) (human podocalyxin [16]): 431

hIgG2 (antibody)
FACS signal (name not given) (human podocalyxin [1]): 533

Control Rb/Hu IgG1 (antibody)
Live cell GeoMean FL (geometric mean fluorescence units) (human podocalyxin [17]): 767
Live cell GeoMean FL (geometric mean fluorescence units) (human podocalyxin [18]): 477
Live cell GeoMean FL (geometric mean fluorescence units) (human podocalyxin [19]): 489
Live cell GeoMean FL (geometric mean fluorescence units) (human podocalyxin [20]): 667
Live cell GeoMean FL (geometric mean fluorescence units) (human podocalyxin [21]): 644
Live cell GeoMean FL (geometric mean fluorescence units) (human podocalyxin [22]): 629
Live cell GeoMean FL (geometric mean fluorescence units) (human podocalyxin [23]): 657
Live cell GeoMean FL (geometric mean fluorescence units) (human podocalyxin [24]): 446
Live cell GeoMean FL (geometric mean fluorescence units) (human podocalyxin [25]): 653
